From IntAct's records for PubMed 16488887

B1: Prospero homeobox protein 1 (Homo sapiens), Q92786 (parent)
chain: MPDHDSTALLSRQTKRRRVDIGVKRTVGTASAFFAKARATFFSAMNPQGSEQDVEYSVVQHADGEKSNVLRKLLKRANSYEDAMMPFPGATIISQLLKNNMNKNGGTEPSFQASGLSSTGSEVHQEDICSNSSRDSPPECLSPFGRPTMSQFDMDRLCDEHLRAKRARVENIIRGMSHSPSVALRGNENEREMAPQSVSPRESYRENKRKQKLPQQQQQSFQQLVSARKEQKREERRQLKQQLEDMQKQLRQLQEKFYQIYDSTDSENDEDGNLSEDSMRSEILDARAQDSVGRSDNEMCELDPGQFIDRARALIREQEMAENKPKREGNNKERDHGPNSLQPEGKHLAETLKQELNTAMSQVVDTVVKVFSAKPSRQVPQVFPPLQIPQARFAVNGENHNFHTANQRLQCFGDVIIPNPLDTFGNVQMASSTDQTEALPLVVRKNSSDQSASGPAAGGHHQPLHQSPLSATTGFTTSTFRHPFPLPLMAYPFQSPLGAPSGSFSGKDRASPESLDLTRDTTSLRTKMSSHHLSHHPCSPAHPPSTAEGLSLSLIKSECGDLQDMSEISPYSGSAMQEGLSPNHLKKAKLMFFYTRYPSSNMLKTYFSDVKFNRCITSQLIKWFSNFREFYYIQMEKYARQAINDGVTSTEELSITRDCELYRALNMHYNKANDFEVPERFLEVAQITLREFFNAIIAGKDVDPSWKKAIYKVICKLDSEVPEIFKSPNCLQELLHE
partner: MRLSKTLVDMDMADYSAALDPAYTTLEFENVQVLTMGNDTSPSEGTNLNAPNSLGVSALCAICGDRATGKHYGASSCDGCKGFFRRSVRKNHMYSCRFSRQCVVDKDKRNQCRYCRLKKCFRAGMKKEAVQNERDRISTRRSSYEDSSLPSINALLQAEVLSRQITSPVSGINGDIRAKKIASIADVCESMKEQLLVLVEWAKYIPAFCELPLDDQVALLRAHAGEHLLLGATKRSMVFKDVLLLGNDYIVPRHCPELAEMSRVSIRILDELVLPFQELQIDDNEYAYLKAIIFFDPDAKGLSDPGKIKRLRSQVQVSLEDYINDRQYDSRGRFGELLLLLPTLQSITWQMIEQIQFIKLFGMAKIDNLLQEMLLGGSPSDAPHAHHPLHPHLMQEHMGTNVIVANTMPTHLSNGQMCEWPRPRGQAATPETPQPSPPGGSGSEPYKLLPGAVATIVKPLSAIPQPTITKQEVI

Variants of: B1
Details: with hnf4a_human HNF4A

effect of a mutation on the interaction	Variant
disrupting interaction	L70A;L73A
